Measurements: the DeepSol protein solubility set

Assay: soluble on expression in E. coli; label from the status in PepcDB or PDB records

Row | Sequence | soluble on expression in E. coli
1 | MSLNNRSETMKYKRIVFKVGTSSLTNEDGSLSRSKVKDITQQLAMLHEAGHELILVSSGAIAAGFGALGFKKRPTKIADKQASAAVGQGLLLEEYTTNLLLRQIVSAQILLTQDDFVDKRRYKNAHQALSVLLNRGAIPIINENDSVVIDELKVGDNDTLSAQVAAMVQADLLVFLTDVDGLYTGNPNSDPRAKRLERIETINREIIDMAGGAGSSNGTGGMLTKIKAATIATESGVPVYICSSLKSDSMIEAAEETEDGSYFVAQEKGLRTQKQWLAFYAQSQGSIWVDKGAAEALSQHGKSLLLSGIVEAEGVFSYGDIVTVFDKESGKSLGKGRVQFGASALEDILRSQKAKGVLIYRDDWISITPEIQLLFTEFEGHHHHHH | soluble
2 | MSLSLDESNTALAEEFDNWDLEFKLWELVDRLFRFRALFSNKAKTELLREYDFSSMGIKQENFLRKNPAIRELSIIILWLQSHTPSLVGDETESYQTKWKNTAMAVANSDFDVLASRATDADLIDKLDIDAPLRSNRSIHPADESNDSKVFAQIYKLLLQDRVQDAIDIANNTGNYALALILVGATQEYFDPVLDKEGHHHHHH | soluble
3 | MDAYRYWSREAIRADIDTRRHCLHIAIENFENDANIGTVVRTANAFAVDTVHIVGRKRWNRRGAMVTDRYQHLMHHPTTADVVAWAKQQGLTIVAIDNTPGCVPLETAELPERCLLLFGQEGPGVTQEAQDNARMTCSIAQFGSTRSINAGVAAGIAMHAWIRQHADLDNAW | not soluble
4 | MSLDDGTGLFTIGQLARRTGLSVRTIRYWSDEGALPPVTRSSGGYRLYDAGSVARLELIRTLRELGLGLDDVREVLAGETTVAEVAATHVTALDAQIRALKVTRAVLSTVARRGSTAEEMTLMNKLARLSAAERRRILEEFADEMFRGLDTADPVIRERMRNTAVDLPDEPTPEQVDAWVELVELLQDPEFRAQMRAAAEFNAADRGHDSPAGASLWFVRRLVQLAADARQRGEGHHHHHH | not soluble
5 | TGKKAILRLSKRAMHLEWKLVKEIIFLGTSGFVMSVTNGFVQIVCNATLQRYGGDIYVGIMTVINSVREIVTMPVTGLTAASQPVIGYNYGAGCYQRVKSA | not soluble
6 | MLSSKTFLNLVRTSRCRMSSSFAPKPAERTAQHSASIWVEFTTLAAETKAVNLGQGFPDSPAPKFVTDLLENLSKHPELTAAHQYTRGYGHPMLVDILAKMYSHFYNVQVDPMNEVLVTVGAYLSLYYAFLGWVNKGDEVLIIEPAYDCYYPQVKFAGGVPVPVVMNLAEGATSASQFTIDFADMESKINEKTKMLVINNPHNPTGKLFSRHELEKLAEIAKKHNLIVIADEVYEFHVWDKNDMVRFASLPGMYERTISIGSAGKAFSVTGWKLGWAVGPKQLLEPLKAIHQNCVFTCSTPTQMAIAEAFRLDWPKFLSDPENSYLATGLSGELRAKRDKLAKMLEEGNFRPIIPDAGYFMLADYVHLKEGINLPTEEDPDDFVFSRWLCREKKLAVIPPSAFYSARDNKLKNSNMVRLCYFKKDETLDAAEEILKKLGKQ | not soluble
7 | EGDIHMSLSHPPIPILELADHIERLKANDNLKFSQEYESIDPGQQFTWEHSNLEVNKPKNRYANVIAYDHSRVLLSAIEGIPGSDYVNANYIDGYRKQNAYIATQGSLPETFGDFWRMIWEQRSATVVMMTKLEERSRVKCDQYWPSRGTETHGLVQVTLLDTVELATYCVRTFALYKNGSSEKREVRQFQFTAWPDHGVPEHPTPFLAFLRRVKTCNPPDAGPMVVHCSAGVGRTGCFIVIDAMLERIKHEKTVDIYGHVTLMRAQRNYMVQTEDQYIFIHDALLEAVTCGNTEVPARNLYAYIQKLTQIETGENVTGMELEFKRLASSKAHTSRFISANLPCNKFKNRLVNIMPYESTRVCLQPIRGVEGSDYINASFLDGYRQQKAYIATQGPLAETTEDFWRMLWEHNSTIVVMLTKLREMGREKCHQYWPAERSARYQYFVVDPMAEYNMPQYILREFKVTDARDGQSRTVRQFQFTDWPEQGVPKSGEGFIDFIGQVHKTKEQFGQDGPISVHCSAGVGRTGVFITLSIVLERMRYEGVVDIFQTVKMLRTQRPAMVQTEDQYQFCYRAALEYLGSFDHYATEGHHHHHH | not soluble
8 | MLALPAEFEQFHWMVDMVQNVDMGLIVINRDYNVQVWNGFMTHHSGKQAHDVIGKSLFEIFPEIPVEWFKLKTKPVYDLGCRSFITWQQRPYLFHCRNVRPVTQQAKFMYQNVTLNPMRTPTGAINSLFLSIQDATSEALVSQQASSQ | not soluble
